Columns and labels:
[1] = tested on: RdhK Hybrid A (Desulfitobacterium hafniense DCB-2 (chimera)); assay: EMSA; conditions: 200 uM Cl-OHPA; EMSA: 100 ng DNA, 2 uM protein, 200 uM effector, 15 uL; buffer 100 mM Tris-HCl pH 8.5, 40% glycerol, 10 mM MgCl2, 500 mM NaCl, 5 mM EDTA, 10 mM DTT …
[2] = tested on: RdhK Hybrid B (Desulfitobacterium hafniense DCB-2 (chimera)); assay: EMSA; conditions: 200 uM Cl-OHPA; EMSA: 100 ng DNA, 2 uM protein, 200 uM effector, 15 uL; buffer 100 mM Tris-HCl pH 8.5, 40% glycerol, 10 mM MgCl2, 500 mM NaCl, 5 mM EDTA, 10 mM DTT …

Sequence	binding signal [1] [% DNA bound]	binding signal [2] [% DNA bound]
GAATTCTCAGGCGATGTAACCGCTTTCAAATTTAGTATACGCTAAATATCTTAACAATGTGATAGCTATGATTGCACCG (double strand) [mgl-DB8]	100	100
GAATTCTCAGGCGATGTAACCGCTTTCAAAGTTAATACACATTAATACTCTTAACAATGTGATAGCTATGATTGCACCG (double strand) [mgl-DB7]	90	–

Source: paper PMC7062800
